The assay concerns the target XPO1 (human) (human) (UniProt O14980). The assay can be described thus: other fluorescence titration; competition differential bleaching: MBP-NES competes with the probe FITC-NESPKI for XPO1, in the presence of excess RanGTP (GSP1 179ter, Q71L); analysed in PALMIST.
UniProt O14980, sequence (O14980 whole entry): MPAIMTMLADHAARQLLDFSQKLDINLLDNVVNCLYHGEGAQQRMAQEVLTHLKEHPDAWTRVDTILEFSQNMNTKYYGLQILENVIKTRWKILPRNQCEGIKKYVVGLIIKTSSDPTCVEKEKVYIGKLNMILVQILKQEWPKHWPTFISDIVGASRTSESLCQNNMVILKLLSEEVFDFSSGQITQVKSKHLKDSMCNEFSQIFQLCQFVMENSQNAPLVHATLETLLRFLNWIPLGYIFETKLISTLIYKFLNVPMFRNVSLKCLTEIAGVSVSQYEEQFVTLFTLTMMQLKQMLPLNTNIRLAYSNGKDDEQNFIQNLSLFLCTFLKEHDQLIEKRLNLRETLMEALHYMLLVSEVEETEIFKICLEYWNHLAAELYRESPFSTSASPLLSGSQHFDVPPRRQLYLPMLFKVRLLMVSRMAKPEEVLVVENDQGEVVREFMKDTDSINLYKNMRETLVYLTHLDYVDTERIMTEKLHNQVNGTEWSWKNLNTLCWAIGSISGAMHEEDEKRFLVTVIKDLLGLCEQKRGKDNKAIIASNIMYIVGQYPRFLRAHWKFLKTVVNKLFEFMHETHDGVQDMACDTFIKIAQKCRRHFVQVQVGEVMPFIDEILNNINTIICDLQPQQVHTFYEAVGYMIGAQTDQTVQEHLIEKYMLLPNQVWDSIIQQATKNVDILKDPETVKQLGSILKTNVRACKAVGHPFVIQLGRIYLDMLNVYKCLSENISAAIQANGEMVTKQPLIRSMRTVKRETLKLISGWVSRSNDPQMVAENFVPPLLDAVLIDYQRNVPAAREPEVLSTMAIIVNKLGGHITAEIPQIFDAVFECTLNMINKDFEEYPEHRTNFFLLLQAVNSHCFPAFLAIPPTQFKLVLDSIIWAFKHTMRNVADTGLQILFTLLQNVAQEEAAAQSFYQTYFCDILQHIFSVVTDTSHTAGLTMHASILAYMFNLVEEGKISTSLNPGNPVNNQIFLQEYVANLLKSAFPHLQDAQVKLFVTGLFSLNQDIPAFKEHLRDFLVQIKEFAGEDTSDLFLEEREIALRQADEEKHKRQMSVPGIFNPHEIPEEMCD

With “MBP-NESTDP (maltose binding protein fused to the putative NES peptide of TDP-43, residues 236-253)”, the Kd was 13 µM.
